Assay results from article doi:10.1101/806364.

Experiments:
Assay in all cases: selective 80S ribosome footprinting
[1] = molecular target: eIF3B (human (endogenous in HeLa)) (UniProt P55884)
[2] = molecular target: eIF4E (human (endogenous in HeLa)) (UniProt P06730)
[3] = molecular target: eIF4G1 (human (endogenous in HeLa)) (UniProt Q04637)

Measured: decay half-length of the factor on elongating 80S ribosomes

Sequence of UniProt P55884 (P55884 whole entry): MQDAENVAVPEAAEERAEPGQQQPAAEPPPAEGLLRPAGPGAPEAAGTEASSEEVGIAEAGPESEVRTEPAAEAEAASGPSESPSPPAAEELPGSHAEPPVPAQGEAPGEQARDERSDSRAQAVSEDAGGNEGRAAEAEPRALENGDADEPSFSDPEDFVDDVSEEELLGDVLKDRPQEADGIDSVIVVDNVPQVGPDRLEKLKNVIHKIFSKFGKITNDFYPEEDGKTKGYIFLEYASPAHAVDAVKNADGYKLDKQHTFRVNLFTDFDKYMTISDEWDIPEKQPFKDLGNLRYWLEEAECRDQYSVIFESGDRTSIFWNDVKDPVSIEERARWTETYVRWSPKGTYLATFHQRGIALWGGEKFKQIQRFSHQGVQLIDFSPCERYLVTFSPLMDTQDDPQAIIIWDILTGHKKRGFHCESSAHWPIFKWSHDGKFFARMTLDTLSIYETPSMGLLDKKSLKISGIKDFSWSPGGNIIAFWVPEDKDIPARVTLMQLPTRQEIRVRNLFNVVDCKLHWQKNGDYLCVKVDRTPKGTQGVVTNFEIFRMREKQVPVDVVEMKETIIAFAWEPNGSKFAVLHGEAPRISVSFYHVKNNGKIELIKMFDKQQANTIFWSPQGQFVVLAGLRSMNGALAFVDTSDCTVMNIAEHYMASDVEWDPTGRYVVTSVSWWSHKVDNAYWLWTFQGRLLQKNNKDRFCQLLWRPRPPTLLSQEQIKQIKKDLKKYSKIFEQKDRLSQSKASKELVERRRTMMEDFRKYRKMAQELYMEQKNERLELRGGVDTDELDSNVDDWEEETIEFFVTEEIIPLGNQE
Sequence of UniProt P06730 (P06730 whole entry): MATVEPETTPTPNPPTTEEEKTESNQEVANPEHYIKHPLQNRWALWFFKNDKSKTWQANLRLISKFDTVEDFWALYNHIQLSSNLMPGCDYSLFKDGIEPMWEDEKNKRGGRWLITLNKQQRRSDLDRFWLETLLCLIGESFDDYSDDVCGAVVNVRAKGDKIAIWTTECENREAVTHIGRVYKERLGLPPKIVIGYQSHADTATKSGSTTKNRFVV
Sequence of UniProt Q04637 (Q04637 whole entry): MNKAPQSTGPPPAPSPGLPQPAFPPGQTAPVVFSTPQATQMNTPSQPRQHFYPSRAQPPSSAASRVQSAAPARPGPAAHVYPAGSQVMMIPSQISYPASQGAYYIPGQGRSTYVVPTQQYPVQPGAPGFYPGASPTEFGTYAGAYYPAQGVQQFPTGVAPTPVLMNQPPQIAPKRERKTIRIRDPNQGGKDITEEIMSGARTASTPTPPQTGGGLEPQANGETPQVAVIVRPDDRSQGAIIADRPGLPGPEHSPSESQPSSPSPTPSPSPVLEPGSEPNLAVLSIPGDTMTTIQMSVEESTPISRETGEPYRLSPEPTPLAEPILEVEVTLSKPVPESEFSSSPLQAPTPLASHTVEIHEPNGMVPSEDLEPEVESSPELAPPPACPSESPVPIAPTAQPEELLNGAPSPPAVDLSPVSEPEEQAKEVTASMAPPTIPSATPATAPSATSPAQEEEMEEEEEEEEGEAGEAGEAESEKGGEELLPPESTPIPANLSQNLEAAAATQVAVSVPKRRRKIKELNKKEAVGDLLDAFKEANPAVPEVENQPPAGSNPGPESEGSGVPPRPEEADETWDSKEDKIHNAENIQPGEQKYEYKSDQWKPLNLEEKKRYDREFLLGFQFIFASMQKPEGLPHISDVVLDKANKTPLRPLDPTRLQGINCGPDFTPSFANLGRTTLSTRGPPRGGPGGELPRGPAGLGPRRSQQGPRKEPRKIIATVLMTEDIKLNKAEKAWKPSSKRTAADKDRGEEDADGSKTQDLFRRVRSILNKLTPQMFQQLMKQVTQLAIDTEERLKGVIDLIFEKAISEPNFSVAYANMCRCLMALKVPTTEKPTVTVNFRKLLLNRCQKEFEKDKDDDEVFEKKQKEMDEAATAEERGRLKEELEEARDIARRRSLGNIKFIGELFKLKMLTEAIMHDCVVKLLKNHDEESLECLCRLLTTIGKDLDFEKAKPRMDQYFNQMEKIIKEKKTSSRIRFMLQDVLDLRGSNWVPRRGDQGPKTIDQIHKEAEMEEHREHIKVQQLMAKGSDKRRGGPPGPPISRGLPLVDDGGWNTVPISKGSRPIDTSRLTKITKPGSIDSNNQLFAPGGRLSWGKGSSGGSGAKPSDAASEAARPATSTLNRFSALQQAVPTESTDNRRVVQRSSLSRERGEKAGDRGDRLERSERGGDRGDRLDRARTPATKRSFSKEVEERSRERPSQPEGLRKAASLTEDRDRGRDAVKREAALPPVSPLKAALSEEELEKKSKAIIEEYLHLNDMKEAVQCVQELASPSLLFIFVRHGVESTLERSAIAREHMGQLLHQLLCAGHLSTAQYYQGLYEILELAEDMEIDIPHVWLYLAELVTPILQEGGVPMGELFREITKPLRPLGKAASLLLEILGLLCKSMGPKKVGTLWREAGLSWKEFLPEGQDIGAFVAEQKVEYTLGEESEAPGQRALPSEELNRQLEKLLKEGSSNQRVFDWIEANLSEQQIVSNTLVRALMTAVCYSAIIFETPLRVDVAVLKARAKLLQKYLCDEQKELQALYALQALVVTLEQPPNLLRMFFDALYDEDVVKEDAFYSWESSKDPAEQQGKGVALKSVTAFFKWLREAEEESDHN

80S ribosome (complex)
36 nucleotides: [1] | [2] | [3]
